Assay results as given in patent US20260151494A1 (ARO BIOTHERAPEUTICS, published 2026).

Key:
[1] = target: T1, human CD71 extracellular domain (CD71-ECD) (human, UniProt P02786 89-760); assay: primary ELISA
T1 construct: also called hCD71; human CD71-ECD

[2] = target: T1, human CD71 extracellular domain …; assay: primary ELISA, RLU ratio to HSA
[3] = target: human CD71 on cells (SKBR3; SW620-rLuc-KRAS) (human, UniProt P02786 1-760); assay: cell-based or functional assay
[4] = target: T2, human CD71 extracellular domain (human, UniProt P02786 89-760); assay: primary ELISA of colonies, luminescence
T2 construct: also called hCD71; human CD71-ECD
T2 sequence (P02786 89-760): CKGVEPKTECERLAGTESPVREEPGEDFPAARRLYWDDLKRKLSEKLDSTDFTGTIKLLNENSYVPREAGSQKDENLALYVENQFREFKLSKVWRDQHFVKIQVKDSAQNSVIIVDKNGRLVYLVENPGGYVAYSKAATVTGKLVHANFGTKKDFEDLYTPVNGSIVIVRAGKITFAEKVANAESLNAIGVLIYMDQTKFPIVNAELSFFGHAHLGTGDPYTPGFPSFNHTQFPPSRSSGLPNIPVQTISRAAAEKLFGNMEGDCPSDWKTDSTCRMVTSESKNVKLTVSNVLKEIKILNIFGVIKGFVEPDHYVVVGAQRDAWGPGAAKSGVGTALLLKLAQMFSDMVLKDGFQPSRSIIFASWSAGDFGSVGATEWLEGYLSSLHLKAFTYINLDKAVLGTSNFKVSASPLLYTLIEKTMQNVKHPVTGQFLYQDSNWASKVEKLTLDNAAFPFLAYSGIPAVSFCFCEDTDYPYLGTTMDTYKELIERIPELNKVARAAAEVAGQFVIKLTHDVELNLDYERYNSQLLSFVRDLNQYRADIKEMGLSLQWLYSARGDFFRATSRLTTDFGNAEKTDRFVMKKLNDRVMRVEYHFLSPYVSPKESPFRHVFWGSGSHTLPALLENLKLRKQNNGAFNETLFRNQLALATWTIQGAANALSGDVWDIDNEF

[5] = target: T3, apical domain of human CD71 (human, UniProt P02786 189-383, limits assumed); assay: primary ELISA of colonies, luminescence
T3 construct: domain: apical domain; the panning antigen was 30% biotinylated; also called human apical domain of CD71
T3 sequence (P02786 189-383 limits assumed): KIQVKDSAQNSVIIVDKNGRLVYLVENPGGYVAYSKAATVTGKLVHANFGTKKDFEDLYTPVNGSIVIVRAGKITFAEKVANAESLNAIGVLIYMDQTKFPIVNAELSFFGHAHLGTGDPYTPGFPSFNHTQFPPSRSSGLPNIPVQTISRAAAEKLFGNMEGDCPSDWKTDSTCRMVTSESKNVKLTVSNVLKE

[6] = target: T2, human CD71 extracellular domain; assay: primary ELISA; signal on hCD71 over signal on HSA
[7] = target: T3, apical domain of human CD71; assay: primary ELISA; signal on apical domain over signal on HSA

Sequence of human CD71 on cells (SKBR3; SW620-rLuc-KRAS) (P02786 whole entry, the tested form may be a part): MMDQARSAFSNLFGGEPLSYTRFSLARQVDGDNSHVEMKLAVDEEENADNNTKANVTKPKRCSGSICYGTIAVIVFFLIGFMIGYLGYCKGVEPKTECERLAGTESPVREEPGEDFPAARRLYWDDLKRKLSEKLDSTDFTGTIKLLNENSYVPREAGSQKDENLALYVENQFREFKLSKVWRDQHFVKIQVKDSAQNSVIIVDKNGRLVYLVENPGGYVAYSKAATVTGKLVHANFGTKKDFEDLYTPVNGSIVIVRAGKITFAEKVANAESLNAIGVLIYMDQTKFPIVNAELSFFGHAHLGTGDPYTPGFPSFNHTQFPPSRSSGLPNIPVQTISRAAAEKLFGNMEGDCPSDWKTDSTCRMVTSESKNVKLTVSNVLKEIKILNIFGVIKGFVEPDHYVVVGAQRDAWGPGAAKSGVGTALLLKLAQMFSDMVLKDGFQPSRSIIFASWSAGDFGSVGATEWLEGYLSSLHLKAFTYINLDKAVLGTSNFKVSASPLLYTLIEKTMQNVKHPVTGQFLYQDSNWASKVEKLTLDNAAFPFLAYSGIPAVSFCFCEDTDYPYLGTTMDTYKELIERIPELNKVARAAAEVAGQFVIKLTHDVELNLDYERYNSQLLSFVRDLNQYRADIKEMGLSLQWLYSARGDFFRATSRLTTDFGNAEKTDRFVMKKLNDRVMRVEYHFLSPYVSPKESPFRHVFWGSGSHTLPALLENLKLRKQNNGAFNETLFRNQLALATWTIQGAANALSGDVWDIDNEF
T1 sequence (P02786 89-760): as the sequence (P02786 89-760) above

B1: CD71-binding FN3 domain SEQ ID NO: 253 (designed binder)
chain: MSLPAPKNLVVSRVTEDSARLSWTAPDAAFDSFDINYWENESGGEAIALFVPGSERSYDLTGLKPGTEYWVSIGGVKGGRFSEPLYARFTT
[1]
  RLU: 3.53e+06 RLU
[2]
  hCD71:HSA: 324

B2: CD71-binding FN3 domain SEQ ID NO: 332 (designed binder)
chain: MSLPAPKNLVVSRVTEDSARLSWTAPDAAFDSFEIGYWEGPGGGEAIILVVPGSERSYDLTGLKPGTEYYVQIGGVKGGDWSTPLWATFTT
[1]
  RLU: 1.7e+06 RLU
[2]
  hCD71:HSA: 131

B3: CD71-binding FN3 domain SEQ ID NO: 245 (designed binder)
chain: MSLPAPKNLVVSRVTEDSARLSWTAPDAAFDSFEISYWEHTFNGEAIILFVPGSERSYDLTGLKPGTEYYVTIGGVKGGAWSPPLWAHFTT
[1]
  RLU: 3.75e+06 RLU
[2]
  hCD71:HSA: 377

B4: CD71-binding FN3 domain SEQ ID NO: 267 (designed binder)
chain: MSLPAPKNLVVSRVTEDSARLSWTAPDAAFDSFEISYWEHTFNGEAIILFVPGSERSYDLTGLKPGTEYYVTIGGVKGGAWSPPLWAEFTT
[1]
  RLU: 3.12e+06 RLU
[2]
  hCD71:HSA: 92

B5: CD71-binding FN3 domain SEQ ID NO: 259 (designed binder)
chain: MSLPAPKNLVVSRVTEDSARLSWTAPDAAFDSFYIAYAEPRPDGEAILLEVPGSERSYDLTGLKPGTEYSVLIHGVKGGLLSSPLSATFTT
[1]
  RLU: 3.77e+06 RLU
[2]
  hCD71:HSA: 300

B6: CD71-binding FN3 domain SEQ ID NO: 261 (designed binder)
chain: MSLPAPKNLVVSRVTEDSARLSWTAPDAAFDSFYIAYAEPRPDGEAILLWVPGSERSYDLTGLKPGTEYSVLIHGVKGGLLSSPLHAYFTT
[1]
  RLU: 3.43e+06 RLU
[2]
  hCD71:HSA: 535

B7: CD71-binding FN3 domain SEQ ID NO: 273 (designed binder)
chain: MLPAPKNLVVSRVTEDSARLSWTAPDAAFDSFEISYWEHTFNGEAIILFVPGSERSYDLTGLKPGTEYYVTIGGVKGGAWSPPLWAEFTT
[1]
  RLU: 3.78e+06 RLU
[2]
  hCD71:HSA: 664

B8: CD71-binding FN3 domain SEQ ID NO: 240 (designed binder)
chain: MSLPAPKNLVVSRVTEDSARLSWTAPDAAFDSFHIWYFEKANEGEAIPLVVPGSERSYDLTGLKPGTEYDVDIGGVKGGAWSIPLGARFTT
[1]
  RLU: 3.72e+06 RLU
[2]
  hCD71:HSA: 39

B9: CD71-binding FN3 domain SEQ ID NO: 241 (designed binder)
chain: MSLPAPKNLVVSRVTEDSARLSWTAPDAAFDSFMIAYDEFIVWGEAVVLTVPGSERSYDLTGLKPGTEYLVEILGVKGGTISGPLSAIFTT
[1]
  RLU: 3.4e+06 RLU
[2]
  hCD71:HSA: 178

B10: CD71-binding FN3 domain of SEQ ID NO: 370 (designed binder)
chain: MLPAPKNLVVSRVTEDSARLSWTAPDAAFDSFYIAYAEPRPDGEAIVLVVPGSERSYDLTGLKPGTEYSVLIHGVKGGLLSSPLSAHFTT
[3]
  CTG EC50 (CellTiter-Glo luminescent assay, SKBR3 cells, 72 h): 10.9 nM

B11: CD71-binding FN3 domain SEQ ID NO: 281 (designed binder)
chain: MSLPAPKNLVVSRVTEDSARLSWTAPDAAFDSFFIGYLEPQPPGEAIALYVPGSERSYDLTGLKPGTEYNVTIQGVKGGFPSEPLIANFTT
[1]
  RLU: 6.37e+06 RLU
[2]
  hCD71:HSA: 380

B12: CD71-binding FN3 domain SEQ ID NO: 294 (designed binder)
chain: MSLPAPKNLVVSRVTEDSARLSWTAPDAAFDSFFIGYLEPQPLGEAIHLFVPGSERSYDLTGLKPGTEYNVTIQGVKGGFPSEPLIASFTT
[1]
  RLU: 6.48e+06 RLU
[2]
  hCD71:HSA: 215

B13: CD71-binding FN3 domain SEQ ID NO: 333 (designed binder)
chain: MSLPAPENLVVSRVTEDSARLSWTAPDAAFDSFFIGYLEPQPPGEAIALYVPGSERSYDLTGLKPGTEYNVTIQGVKGGFPSLPLVATFTT
[1]
  RLU: 5.32e+06 RLU
[2]
  hCD71:HSA: 146

B14: CD71-binding FN3 domain SEQ ID NO: 295 (designed binder)
chain: MSLPAPKNLVVSRVTEDSARLSWTAPDAAFDSFFIGYLEPQPPGEAIDLYVPGSERSYDLTGLKPGTEYNVTIQGVKGGFPSEPLVATFTT
[1]
  RLU: 6.2e+06 RLU
[2]
  hCD71:HSA: 438

B15: CD71-binding FN3 domain SEQ ID NO: 331 (designed binder)
chain: MSLPAPKNLVVSRVTEDSARLSWTAPDAAFDSFFIGYLEPQPPGEAIHLYVPGSERSYDLTGLKPGTEYNVTIQGVKVGFPSEPLIANFTT
[1]
  RLU: 4.66e+06 RLU
[2]
  hCD71:HSA: 524

B16: CD71-binding FN3 domain SEQ ID NO: 293 (designed binder)
chain: MSLPAPKNLVVSRVTEDSARLSWTAPDAAFDSFFIGYLEPQPPGEAIDLYVPGSERSYDLTGLKPGTEYNVTIQGVKGGFPSHPLVATFTT
[1]
  RLU: 6.23e+06 RLU
[2]
  hCD71:HSA: 561

B17: CD71-binding FN3 domain of SEQ ID NO: 347 (designed binder)
chain: MLPAPKNLVVSRVTEDSARLSWTAPDAAFDSFFIGYLEPQPPGEAIGLFVPGSERSYDLTGLKPGTEYNVTIQGVKGGFPSEPLKAAFTT
[3]
  CTG EC50 (CellTiter-Glo luminescent assay, SKBR3 cells, 72 h): 53.4 nM

B18: CD71-binding FN3 domain of SEQ ID NO: 491 (designed binder)
chain: MLPAPKNLVVSRVTEDSARLSWTAPDAAFDSFFIGYLEPQPSGEAIHLIVPGSERSYDLTGLKPGTEYNVTIQGVKGGFPSDPLVASFTT
[3]
  CTG EC50 (CellTiter-Glo luminescent assay, SKBR3 cells, 72 h): 3.2 nM

B19: CD71-binding FN3 domain of SEQ ID NO: 469 (designed binder)
chain: MLPAPKNLVVSRVTEDSARLSWTAPDAAFDSFFIGYLEPQPPGEAIHLYVPGSERSYDLTGLKPGTEYNVTIQGVKGGFPSLPLVATFTT
[3]
  CTG EC50 (CellTiter-Glo luminescent assay, SKBR3 cells, 72 h): 0.2 nM

B20: CD71-binding FN3 domain of SEQ ID NO: 445 (designed binder)
chain: MLPAPKNLVVSRVTEDSARLSWTAPDAAFDSFFIGYLEPQPPGEAIHLFVPGSERSYDLTGLKPGTEYNVTIQGVKGGFPSDPLVASFTT
[3]
  CTG EC50 (CellTiter-Glo luminescent assay, SKBR3 cells, 72 h): 0.4 nM

B21: CD71-binding FN3 domain of SEQ ID NO: 527 (designed binder)
chain: MLPAPKNLVVSRVTEDSARLSWTAPDAAFDSFFIGYLEPQPPGEAIHLYVPGSERSYDLTGLKPGTEYNVTIQGVKGGFPSEPLIANFTT
[3]
  CTG EC50 (CellTiter-Glo luminescent assay, SKBR3 cells, 72 h): 0.1 nM

B22: CD71-binding FN3 domain of SEQ ID NO: 497 (designed binder)
chain: MLPAPKNLVVSRVTEDSARLSWTAPDAAFDSFFIGYLEPQPPGEAITLLVPGSERSYDLTGLKPGTEYNVTIQGVKGGFPSKPLYAYFTT
[3]
  CTG EC50 (CellTiter-Glo luminescent assay, SKBR3 cells, 72 h): 31.3 nM

B23: CD71-binding FN3 domain of SEQ ID NO: 112 (designed binder)
chain: MLPAPKNLVVSRVTEDSARLSWTAPDAAFDSFFIGYLEPQPPGEAIDLWVPGSERSYDLTGLKPGTEYNVTIQGVKGGFPSMPLSAIFTT
notes: Screen 1 hit, tested from colonies in the primary ELISA; not shown: C-terminal poly-histidine tag added to each FN3 domain
[4]
  hCD71, RLU: 5.41e+06 RLU
[5]
  Apical domain, RLU: 4.78e+06 RLU
[6]
  hCD71:HSA: 2040 ratio
[7]
  Apical domain:HSA: 1800 ratio

B24: CD71-binding FN3 domain of SEQ ID NO: 107 (designed binder)
chain: MLPAPKNLVVSRVTEDSARLSWTAPDAAFDSFFIGYLEPQPPGEAIGLQVPGSERSYDLTGLKPGTEYNVTIQGVKGGFPSMPLSAIFTT
notes: as for B23
[4]
  hCD71, RLU: 6.03e+06 RLU
[5]
  Apical domain, RLU: 4.23e+06 RLU
[6]
  hCD71:HSA: 1860 ratio
[7]
  Apical domain:HSA: 1300 ratio

B25: CD71-binding FN3 domain of SEQ ID NO: 111 (designed binder)
chain: MLPAPKNLVVSRVTEDSARLSWTAPDAAFDSFFIGYLEPQPPGEAISLWVPGSERSYDLTGLKPGTEYNVTIQGVKGGFPSIPLWAIFTT
notes: as for B23
[4]
  hCD71, RLU: 3.7e+06 RLU
[5]
  Apical domain, RLU: 5.04e+06 RLU
[6]
  hCD71:HSA: 1420 ratio
[7]
  Apical domain:HSA: 1940 ratio

B26: CD71-binding FN3 domain of SEQ ID NO: 479 (designed binder)
chain: MLPAPKNLVVSRVTEDSARLSWTAPDAAFDSFFIGYLEPQPPGEAINLWVPGSERSYDLTGLKPGTEYNVTIQGVKGGFPSTPLFAGFTT
[3]
  CTG EC50 (CellTiter-Glo luminescent assay, SKBR3 cells, 72 h): 30.6 nM

B27: CD71-binding FN3 domain of SEQ ID NO: 104 (designed binder)
chain: MLPAPKNLVVSRVTEDSARLSWTAPDAAFDSFFIGYLEPQPPGEAIHLIVPGSERSYDLTGQKPGTEYNVTIQGVKGGFPSDPLVASFTT
notes: as for B23
[4]
  hCD71, RLU: 6.36e+06 RLU
[5]
  Apical domain, RLU: 4.43e+06 RLU
[6]
  hCD71:HSA: 216 ratio
[7]
  Apical domain:HSA: 150 ratio

B28: CD71-binding FN3 domain of SEQ ID NO: 117 (designed binder)
chain: MLPAPKNLVVSRVTEDSARLSWTAPDAAFDSFFIGYLEPQPPGEAIWLLVPGSERSYDLTGLKPGTEYNVTIQGVKGGFPSTPLSAIFTT
notes: as for B23
[4]
  hCD71, RLU: 4.21e+06 RLU
[5]
  Apical domain, RLU: 5.33e+06 RLU
[6]
  hCD71:HSA: 1120 ratio
[7]
  Apical domain:HSA: 1420 ratio

B29: CD71-binding FN3 domain of SEQ ID NO: 410 (designed binder)
chain: MLPAPKNLVVSRVTEDSARLSWTAPDAAFDSFFIGYLEPQPPGEAIALWVPGSERSYDLTGLKPGTEYNVTIQGVKGGFPSQPLHAHFTT
[3]
  CTG EC50 (CellTiter-Glo luminescent assay, SKBR3 cells, 72 h): 5.8 nM

B30: CD71-binding FN3 domain of SEQ ID NO: 113 (designed binder)
chain: MLPAPKNLVVSRVTEDSARLSWTAPDAAFDSFFIGYLEPQPPGEAIYLLVPGSERSYDLTGLKPGTEYNVTIQGVKGGFPSDPLSAIFTT
notes: as for B23
[4]
  hCD71, RLU: 4.6e+06 RLU
[5]
  Apical domain, RLU: 5.94e+06 RLU
[6]
  hCD71:HSA: 1640 ratio
[7]
  Apical domain:HSA: 2120 ratio

B31: CD71-binding FN3 domain of SEQ ID NO: 115 (designed binder)
chain: MLPAPKNLVVSRVTEDSARLSWTAPDAAFDSFFIGYLEPQPPGEAIDLYVPGSERSYDLTGLKPGIEYNVTIQGVKGGFPSLPLQAHFTT
notes: as for B23
[4]
  hCD71, RLU: 5.19e+06 RLU
[5]
  Apical domain, RLU: 4.58e+06 RLU
[6]
  hCD71:HSA: 999 ratio
[7]
  Apical domain:HSA: 881 ratio

B32: CD71-binding FN3 domain of SEQ ID NO: 109 (designed binder)
chain: MLPAPKNLVVSRVTEDSARLSWTAPDAAFDSFFIGYLEPQPPGEAIILHVPGSERSYDLTGLKPGTEYNVTIQGVKGGFPSLPLNANFTT
notes: as for B23
[4]
  hCD71, RLU: 3.94e+06 RLU
[5]
  Apical domain, RLU: 3.35e+06 RLU
[6]
  hCD71:HSA: 1210 ratio
[7]
  Apical domain:HSA: 1030 ratio
